Columns and labels:
AvrB^QRY/AAA = target: T1, AvrB^QRY/AAA (Pseudomonas syringae pv. glycinea, UniProt P13835 1-321, QRY/AAA (Q208, R209, and Y210 to alanine)); assay: ITC; VP-ITC microcalorimeter; RIN4_(142–176) peptide (50 to 450 μM) titrated in 6-μl injections into 5 to 25 μM wild-type or variant AvrB, stirring at 255 rpm; wild-type AvrB 6 μM with full-length RIN4 120 μM; nonbinding confirmed at as much as 25 μM and 450 μM; conditions: both partners purified
T1 construct: AvrB (avirulence protein B), Pseudomonas syringae pv. glycinea; also called triple mutation of Q208, R209, and Y210 to alanine; source: E. coli BL21 Rosetta, purified (glutathione column, TEV digestion, Source Q); not shown: GST, N-terminal, cleaved
T1 sequence: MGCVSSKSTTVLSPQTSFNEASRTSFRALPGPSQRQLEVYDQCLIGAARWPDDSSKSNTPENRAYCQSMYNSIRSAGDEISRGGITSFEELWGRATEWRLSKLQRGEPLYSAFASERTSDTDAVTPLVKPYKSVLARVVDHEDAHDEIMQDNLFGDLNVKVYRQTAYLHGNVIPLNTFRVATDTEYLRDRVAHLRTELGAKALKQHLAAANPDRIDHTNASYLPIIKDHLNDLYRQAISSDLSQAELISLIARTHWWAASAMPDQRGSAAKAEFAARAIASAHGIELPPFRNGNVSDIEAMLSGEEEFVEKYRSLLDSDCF

[1] = target: T2, avirulence protein B (AvrB), wild type (Pseudomonas syringae pv. glycinea, UniProt P13835 1-321); assay: as above; conditions: both partners purified
T2 construct: AvrB (avirulence protein B), type III effector of Pseudomonas syringae pv. glycinea; residues 26-53 and 56-321 are modelled in the AvrB/RIN4 structure; also called wild-type AvrB; source: E. coli BL21 Rosetta (pProEX-HTa), purified (nickel column, TEV digestion, Source Q, Sephacryl S200 if needed); not shown: His tag, N-terminal, cleaved
T2 sequence (P13835 whole entry, the tested form may be a part): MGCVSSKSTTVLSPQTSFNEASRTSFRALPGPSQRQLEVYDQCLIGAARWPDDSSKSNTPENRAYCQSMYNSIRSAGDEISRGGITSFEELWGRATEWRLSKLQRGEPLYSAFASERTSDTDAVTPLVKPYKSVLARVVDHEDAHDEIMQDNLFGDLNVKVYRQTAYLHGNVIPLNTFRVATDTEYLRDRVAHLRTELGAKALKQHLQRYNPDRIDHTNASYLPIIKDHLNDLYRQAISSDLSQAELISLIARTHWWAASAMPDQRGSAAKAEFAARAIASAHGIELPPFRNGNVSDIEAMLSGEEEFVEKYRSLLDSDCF

B1: RIN4_(142–176) (peptide, UniProt Q8GYN5 142-176, looked up)
peptide: PEKVTVVPKFGDWDENNPSSADGYTHIFNKVREER
notes: the last four residues are printed as REER; residues 150-172 are modelled in the structure; also called RIN4 peptide
Kd (AvrB^QRY/AAA): 9 µM
Kd [1]: 3 µM

Reference: paper PMC1839166, “Type III Effector Activation via Nucleotide Binding, Phosphorylation, and Host Target Interaction” (PLoS Pathogens, 2007)
